Consider 16 molecules from PMC5309722, “A substrate-bound structure of cyanobacterial biliverdin reductase identifies stacked substrates as critical for activity” (Nature Communications, 2017).

What is called Km is the concentration of substrate that gives half-maximal velocity. The term kcat denotes the maximal rate divided by the concentration of active sites. The term kcat/Km denotes the turnover number divided by the Michaelis constant.

The target in series [1] is T1, Syn BVR (Synechocystis sp. PCC 6803, UniProt P72782).
T1 construct: gene bvdR; full length, 328 residues; N-terminal His6 tag (pET15b), E. coli C41(DE3); tag cut with thrombin for crystals
T1 sequence (P72782 entry or part of it): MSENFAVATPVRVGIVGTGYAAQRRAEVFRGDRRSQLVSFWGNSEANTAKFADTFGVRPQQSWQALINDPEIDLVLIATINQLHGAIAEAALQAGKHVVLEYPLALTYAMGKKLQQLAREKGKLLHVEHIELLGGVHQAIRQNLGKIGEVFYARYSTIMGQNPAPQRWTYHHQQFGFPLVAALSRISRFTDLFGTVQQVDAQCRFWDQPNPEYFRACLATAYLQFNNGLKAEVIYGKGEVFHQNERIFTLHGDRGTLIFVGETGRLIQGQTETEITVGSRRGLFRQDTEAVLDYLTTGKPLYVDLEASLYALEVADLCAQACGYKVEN
Nature of the series: X-ray crystal structure, co-crystal, […] Å; also optical titration. The conditions noted are these: ternary complex with NADP+; two stacked biliverdins (proximal and distal) in active site. It is filed as binding.

A further series concerns the target T2, human BVR (Homo sapiens, UniProt P53004).
T2 construct: gene BLVRA; C-terminal His tag (pET21a(+)), codon-optimized synthetic gene, E. coli BL21(DE3)
T2 sequence (P53004 1-296 limits assumed): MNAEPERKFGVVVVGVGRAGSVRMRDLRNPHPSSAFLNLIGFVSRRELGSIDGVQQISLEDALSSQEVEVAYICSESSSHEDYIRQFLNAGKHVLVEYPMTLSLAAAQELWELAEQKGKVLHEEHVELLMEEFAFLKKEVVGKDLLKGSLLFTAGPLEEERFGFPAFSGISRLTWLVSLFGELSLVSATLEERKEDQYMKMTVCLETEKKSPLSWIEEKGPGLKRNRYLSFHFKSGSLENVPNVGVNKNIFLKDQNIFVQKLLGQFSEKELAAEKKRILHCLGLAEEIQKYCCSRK
Briefly: optical titration, difference absorption. The class given is binding. The conditions noted are these: 5 mM NADP+, 200 mM Tris-HCl pH 8.75, 28 °C; two biliverdins bound.

The target in the next series is T3, rat BVR (Rattus norvegicus, UniProt P46844).
T3 construct: gene Blvra; C-terminal His tag (pET21a-rat bvr), E. coli BL21(DE3)
T3 sequence (P46844 1-295 limits assumed): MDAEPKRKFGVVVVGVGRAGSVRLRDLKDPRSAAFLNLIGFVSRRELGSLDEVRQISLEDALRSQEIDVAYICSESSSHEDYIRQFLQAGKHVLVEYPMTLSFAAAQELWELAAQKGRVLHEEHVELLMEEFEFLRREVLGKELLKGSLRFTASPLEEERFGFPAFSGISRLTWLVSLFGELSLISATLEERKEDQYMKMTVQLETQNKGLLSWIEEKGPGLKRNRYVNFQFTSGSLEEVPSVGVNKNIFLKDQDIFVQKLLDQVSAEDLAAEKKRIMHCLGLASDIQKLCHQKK
Nature of the series: optical titration, difference absorption. The class given is binding. The note with it: 5 mM NADP+, 200 mM Tris-HCl pH 8.75, 28 °C; two biliverdins bound.

For series [2], the target named is T1, Syn BVR. Nature of the series: reduction of biliverdin in crystal and solution. It is filed as biochemical. The conditions noted are these: biliverdin as co-substrate; crystallization solution.
Series [3] addresses T1, Syn BVR. Nature of the series: X-ray crystal structure, soaked crystal, […] Å. It is filed as binding. The note with it: 10 mM NADP+ soak; no biliverdin; cleft between the two domains.
Substrate in series [4]: C=CC1=C(C)/C(=C/c2[nH]c(/C=C3N=C(/C=C4\NC(=O)C(C)=C4C=C)C(C)=C\3CCC(=O)O)c(CCC(=O)O)c2C)NC1=O
Briefly: steady-state kinetics, A450 bilirubin formation. It is filed as biochemical, Rattus norvegicus. The conditions noted are these: 100 μM NADPH, 100 mM Tris-HCl pH 8.75. The source says:
steady-state kinetics, A450 bilirubin formation on rat BVR

Substrate in series [5]: C=CC1=C(C)/C(=C/c2[nH]c(/C=C3N=C(/C=C4\NC(=O)C(C)=C4C=C)C(C)=C\3CCC(=O)O)c(CCC(=O)O)c2C)NC1=O
Nature of the series: steady-state kinetics, A450 bilirubin formation. The class given is biochemical, Homo sapiens. The note with it: 100 μM NADPH, 100 mM Tris-HCl pH 8.75. The source says:
steady-state kinetics, A450 bilirubin formation on human BVR

Substrate in series [6]: C=CC1=C(C)/C(=C/c2[nH]c(/C=C3N=C(/C=C4\NC(=O)C(C)=C4C=C)C(C)=C\3CCC(=O)O)c(CCC(=O)O)c2C)NC1=O
Briefly: steady-state kinetics, A450 bilirubin formation. The class given is biochemical, Synechocystis sp. PCC 6803. The conditions noted are these: 100 μM NADPH, 100 mM citrate pH 5.75. The source says:
steady-state kinetics, A450 bilirubin formation on Syn BVR

Numbering of substitutions follows the chain as printed. In names and notes the source's numbering stands.

Take `C=CC1=C(C)/C(=C/c2[nH]c(/C=C3N=C(/C=C4\NC(=O)C(C)=C4C=C)C(C)=C\3CCC(=O)O)c(CCC(=O)O)c2C)NC1=O` [biliverdin IXα]: at Syn BVR [1], the “X-ray crystal structure, co-crystal, 2.6 Å; also optical titration” value is “two BV molecules are bound to the catalytic cleft between the two domains”. Besides, the “optical titration, difference absorption” value on human BVR was “two BV molecules bound in both human and rat BVRs”; at rat BVR it was “two BV molecules bound in both human and rat BVRs”.

Take `NC(=O)C1=CN([C@@H]2O[C@H](COP(=O)(O)OP(=O)(O)OC[C@H]3O[C@@H](n4cnc5c(N)ncnc54)[C@H](OP(=O)(O)O)[C@@H]3O)[C@@H](O)[C@H]2O)C=CC1` [NADPH]: the “reduction of biliverdin in crystal and solution” value on Syn BVR [2] is listed as “BV could be rapidly (as in the mixing time) reduced to BR by addition of NADPH”.

As for `NC(=O)c1ccc[n+]([C@@H]2O[C@H](COP(=O)(O)OP(=O)(O)OC[C@H]3O[C@@H](n4cnc5c(N)ncnc54)[C@H](OP(=O)(O)O)[C@@H]3O)[C@@H](O)[C@H]2O)c1` [NADP^+], at Syn BVR [3], the “X-ray crystal structure, soaked crystal, 2.7 Å” value is “NADP^+ binds in the cleft between the two domains”.

B1: rat BVR (Rattus norvegicus) (protein)
chain: T3 sequence (P46844 1-295 limits assumed)
notes: C-terminal His tag (pET21a-rat bvr), E. coli BL21(DE3)
Regarding B1, in series [4], the Km is 4.6 ± 1.1 µM, the turnover number (kcat) was 69.3 ± 8.5 s⁻¹ and the catalytic efficiency (kcat/Km) was 1.51e+07 M⁻¹ s⁻¹.

B2: rat BVR (Rattus norvegicus; R171E) (protein)
chain: T3 sequence (P46844 1-295 limits assumed) with R171E
notes: as for B1
On to B2, for which, in series [4], the Michaelis-Menten constant (Km) came out at 45.7 ± 15.4 µM, the kcat turned out to be 0.7 ± 0.2 s⁻¹ and the specificity constant (kcat/Km) was determined as 20000 M⁻¹ s⁻¹.

B3: rat BVR (Rattus norvegicus; R171A) (protein)
chain: T3 sequence (P46844 1-295 limits assumed) with R171A
notes: as for B1
With B3, in series [4], the Km was determined as 24.4 ± 1.5 µM, the turnover number (kcat) worked out at 6 ± 0.2 s⁻¹ and the kcat/Km turned out to be 200000 M⁻¹ s⁻¹.

B4: rat BVR (Rattus norvegicus; Y97F) (protein)
chain: T3 sequence (P46844 1-295 limits assumed) with Y97F
notes: as for B1
Take B4: in series [4], the Michaelis constant (Km) turned out to be 11.7 ± 1.0 µM, the turnover number (kcat) turned out to be 13.6 ± 0.6 s⁻¹ and the kcat/Km came out at 1.2e+06 M⁻¹ s⁻¹.

B5: human BVR (Homo sapiens) (protein)
chain: T2 sequence (P53004 1-296 limits assumed)
notes: C-terminal His tag (pET21a(+)), codon-optimized synthetic gene, E. coli BL21(DE3)
For B5, in series [5], the Michaelis-Menten constant (Km) was 20.7 ± 10.1 µM, the catalytic constant (kcat) stood at 94.8 ± 31.4 s⁻¹ and the kcat/Km amounted to 4.6e+06 M⁻¹ s⁻¹.

B6: human BVR (Homo sapiens; Y98F) (protein)
chain: T2 sequence (P53004 1-296 limits assumed) with Y98F
notes: as for B5
As to B6, in series [5], the Km came to 3.8 ± 0.3 µM, the catalytic constant (kcat) worked out at 16.8 ± 0.5 s⁻¹ and the catalytic efficiency (kcat/Km) was found to be 4.4e+06 M⁻¹ s⁻¹.

B7: human BVR (Homo sapiens; R172A) (protein)
chain: T2 sequence (P53004 1-296 limits assumed) with R172A
notes: as for B5
As for B7, in series [5], the Km came to 87.7 ± 35.7 µM, the kcat amounted to 17.9 ± 6.3 s⁻¹ and the kcat/Km stood at 200000 M⁻¹ s⁻¹.

B8: Syn BVR (Synechocystis sp. PCC 6803 substr. Kazusa; R246A) (protein)
chain: MSENFAVATPVRVGIVGTGYAAQRRAEVFRGDRRSQLVSFWGNSEANTAKFADTFGVRPQQSWQALINDPEIDLVLIATINQLHGAIAEAALQAGKHVVLEYPLALTYAMGKKLQQLAREKGKLLHVEHIELLGGVHQAIRQNLGKIGEVFYARYSTIMGQNPAPQRWTYHHQQFGFPLVAALSRISRFTDLFGTVQQVDAQCRFWDQPNPEYFRACLATAYLQFNNGLKAEVIYGKGEVFHQNEAIFTLHGDRGTLIFVGETGRLIQGQTETEITVGSRRGLFRQDTEAVLDYLTTGKPLYVDLEASLYALEVADLCAQACGYKVEN
notes: full length, 328 residues; N-terminal His6 tag (pET15b), E. coli C41(DE3); tag cut with thrombin for crystals
Turning to B8, in series [6], the Michaelis constant (Km) is 5.1 ± 0.8 µM, the catalytic constant (kcat) was 11 ± 0.6 s⁻¹ and the kcat/Km came out at 2.2e+06 M⁻¹ s⁻¹.

B9: Syn BVR (Synechocystis sp. PCC 6803 substr. Kazusa; R185A) (protein)
chain: B8 chain with R185A, A246R
notes: as for B8
For the molecule B9, in series [6], the Michaelis constant (Km) was 6.9 ± 0.6 µM, the catalytic constant (kcat) is 0.7 ± 0.02 s⁻¹ and the specificity constant (kcat/Km) is 100000 M⁻¹ s⁻¹.

B10: Syn BVR (Synechocystis sp. PCC 6803 substr. Kazusa; R185K) (protein)
chain: B8 chain with R185K, A246R
notes: as for B8
As to B10, in series [6], the Michaelis constant (Km) worked out at 12.6 ± 1.5 µM, the catalytic constant (kcat) was determined as 0.9 ± 0.05 s⁻¹ and the specificity constant (kcat/Km) was 70000 M⁻¹ s⁻¹.

B11: Syn BVR (Synechocystis sp. PCC 6803 substr. Kazusa) (protein)
chain: B8 chain with A246R
notes: as for B8
Take B11: in series [6], the Km worked out at 1.8 ± 0.3 µM, the catalytic constant (kcat) was 7.1 ± 0.2 s⁻¹ and the kcat/Km stood at 3.9e+06 M⁻¹ s⁻¹.

B12: Syn BVR (Synechocystis sp. PCC 6803 substr. Kazusa; Y102F) (protein)
chain: B8 chain with Y102F, A246R
notes: as for B8
For B12, in series [6], the Km was 4.0 ± 0.3 µM, the turnover number (kcat) was determined as 2.7 ± 0.07 s⁻¹ and the specificity constant (kcat/Km) was 700000 M⁻¹ s⁻¹.

B13: Syn BVR (Synechocystis sp. PCC 6803 substr. Kazusa; T169A) (protein)
chain: B8 chain with T169A, A246R
notes: as for B8
Turning to B13, in series [6], the Km amounted to 3.4 ± 0.5 µM, the kcat stood at 13.1 ± 0.5 s⁻¹ and the specificity constant (kcat/Km) worked out at 3.9e+06 M⁻¹ s⁻¹.
